The values that follow come from PMC8058561, “Activity-dependent conformational transitions of the insulin receptor–related receptor” (The Journal of Biological Chemistry, 2021).

This data set concerns the molecule itself. Briefly: atomic force microscopy; purified full-length IRR in DDM micelles deposited on mica; tapping mode in 150 mM NaCl, 20 mM sodium phosphate, 5% glycerol, pH 7.0 or pH 9.0; single receptor-micelle complexes sorted by the shape of the ectodomain.

B1: insulin receptor-related receptor (full-length human IRR with a C-terminal 6xHIS tag) (receptor)
chain 1: VEVCPSLDIRSEVAELRQLENCSVVEGHLQILLMFTATGEDFRGLSFPRLTQVTDYLLLFRVYGLESLRDLFPNLAVIRGTRLFLGYALVIFEMPHLRDVALPALGAVLRGAVRVEKNQELCHLSTIDWGLLQPAPGANHIVGNKLGEECADVCPGVLGAAGEPCAKTTFSGHTDYRCWTSSHCQRVCPCPHGMACTARGECCHTECLGGCSQPEDPRACVACRHLYFQGACLWACPPGTYQYESWRCVTAERCASLHSVPGRASTFGIHQGSCLAQCPSGFTRNSSSIFCHKCEGLCPKECKVGTKTIDSIQAAQDLVGCTHVEGSLILNLRQGYNLEPQLQHSLGLVETITGFLKIKHSFALVSLGFFKNLKLIRGDAMVDGNYTLYVLDNQNLQQLGSWVAAGLTIPVGKIYFAFNPRLCLEHIYRLEEVTGTRGRQNKAEINPRTNGDRAACQTRTLRFVSNVTEADRILLRWERYEPLEARDLLSFIVYYKESPFQNATEHVGPDACGTQSWNLLDVELPLSRTQEPGVTLASLKPWTQYAVFVRAITLTTEEDSPHQGAQSPIVYLRTLPAAPTVPQDVISTSNSSSHLLVRWKPPTQRNGNLTYYLVLWQRLAEDGDLYLNDYCHRGLRLPTSNNDPRFDGEDGDPEAEMESDCCPCQHPPPGQVLPPLEAQEASFQKKFENFLHNAITIPISPWKVTSINKSPQRDSG
chain 2: not shown
notes: alpha subunit (about 100 kDa) of human insulin receptor-related receptor, cut from the single-chain precursor (about 170 kDa); beta subunit (about 70 kDa) of human insulin receptor-related receptor, cut from the single-chain precursor (about 170 kDa); holds the transmembrane segment and the tyrosine kinase domain; Some uncleaved proreceptor (170 kDa) was also seen on the blot; The receptor was …
Consider B1, for which the binding result is recorded as “binds”.
